Results reported in US20150246136A1 (Bayer, published 2015).
Where “and” joins values, the source holds several entries; their conditions need not be identical. Equal entries are not always repeated. One block for each binder: values may come before it.

Columns and labels:
Experiment in all cases: cell-based or functional assay
C4.4a = molecular target: T1, C4.4a (Homo sapiens, UniProt O95274 31-326)
T1 sequence (looked up): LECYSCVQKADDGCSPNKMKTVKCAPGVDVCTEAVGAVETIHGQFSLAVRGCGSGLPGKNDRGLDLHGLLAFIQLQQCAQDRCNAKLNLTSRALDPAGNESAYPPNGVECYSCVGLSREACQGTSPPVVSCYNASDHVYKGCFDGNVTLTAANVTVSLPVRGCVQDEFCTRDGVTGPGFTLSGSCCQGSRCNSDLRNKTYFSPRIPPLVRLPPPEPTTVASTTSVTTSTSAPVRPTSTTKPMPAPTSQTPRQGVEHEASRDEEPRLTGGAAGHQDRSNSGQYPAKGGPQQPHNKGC

Carboanhydrase IX [1] = molecular target: T2, Carboanhydrase IX (Homo sapiens, UniProt Q16790 38-459)
Carboanhydrase IX [2] = molecular target: T2, Carboanhydrase IX; remark: listed apart in the source

B1: Example 211 (antibody, human IgG1, lambda, V domains shown)
VH: EVQLLESGGGLVQPGGSLRLSCAASGFTFSSAWMSWVRQAPGKGLEWVSYISSSGSTIYYADSVKGRFTISRDNSKNTLYLQMNSLRAEDTAVYYCAREGLWAFDYWGQGTLVTVSS
VL: QSVLTQPPSVSGAPGQRVTISCTGSSSNIGAGYVVHWYQQLPGTAPKLLIYDNNKRPSGVPDRFSGSKSGTSASLAISGLRSEDEADYYCAAYDDSLSGPVFGGGTKLTVLG
modifications: linker-toxophore on cysteine S
IC50 (nM) A549: C4.4a (C4.4a): 0.076 nM

B2: Example 214 (antibody, human IgG1, lambda, V domains shown)
VH: B1 VH
VL: B1 VL
modifications: linker-toxophore on cysteine S
IC50 (nM) A549: C4.4a (C4.4a): 0.04 nM

B3: Example 215 (antibody, human IgG1, lambda, V domains shown)
VH: B1 VH
VL: B1 VL
modifications: linker-toxophore on cysteine S
IC50 (nM) A549: C4.4a (C4.4a): 0.046 nM

B4: Example 280 (antibody, human IgG1, kappa, V domains shown)
VH: QVELVESGGGLVQPGGSLRLSCAASGFTFSSYGMSWVRQAPGKGLEWVSGISSLGSTTYYADSVKGRFTISRDNSKNTLYLQMNSLRAEDTAVYYCARTGSPGTFMHGDHWGQGTLVTVSS
VL: DIQMTQSPSSLSASVGDRVTITCRASQDINNYLSWYQQKPGKAPKLLIYGASNLQSGVPSRFSGSGSGTDFTLTISSLQPEDFAVYYCQQYYGRPTTFGQGTKVEIKR
modifications: linker-toxophore on cysteine S
EC50 (nM) HT29 (Carboanhydrase IX [1]): 2.9 nM
MIAPaCa 2/CA9+ IC50 (Carboanhydrase IX [2]): 0.4 nM

B8: Example 289 (antibody, human IgG1, kappa, V domains shown)
VH: B4 VH
VL: B4 VL
modifications: linker-toxophore on cysteine S
EC50 (nM) HT29 (Carboanhydrase IX [1]): 49 nM
MIAPaCa 2/CA9+ IC50 (Carboanhydrase IX [2]): 78 nM

B11: Example 281 (antibody, human IgG1, kappa, V domains shown)
VH: B4 VH
VL: B4 VL
modifications: linker-toxophore on cysteine S
EC50 (nM) HT29 (Carboanhydrase IX [1]): 1.7 nM
MIAPaCa 2/CA9+ IC50 (Carboanhydrase IX [2]): 1.2 nM

B14: Example 287 (antibody, human IgG1, kappa, V domains shown)
VH: B4 VH
VL: B4 VL
modifications: linker-toxophore on cysteine S
EC50 (nM) HT29 (Carboanhydrase IX [1]): > 30 nM
MIAPaCa 2/CA9+ IC50 (Carboanhydrase IX [2]): 69 nM

B15: Example 286 (antibody, human IgG1, kappa, V domains shown)
VH: B4 VH
VL: B4 VL
modifications: linker-toxophore on cysteine S
EC50 (nM) HT29 (Carboanhydrase IX [1]): 0.03 nM
MIAPaCa 2/CA9+ IC50 (Carboanhydrase IX [2]): 0.8 nM

B16: Example 288 (antibody, human IgG1, kappa, V domains shown)
VH: B4 VH
VL: B4 VL
modifications: linker-toxophore on cysteine S
EC50 (nM) HT29 (Carboanhydrase IX [1]): 39 nM
MIAPaCa 2/CA9+ IC50 (Carboanhydrase IX [2]): 12 nM

B17: Example 284 (antibody, human IgG1, kappa, V domains shown)
VH: B4 VH
VL: B4 VL
modifications: linker-toxophore on cysteine S
EC50 (nM) HT29 (Carboanhydrase IX [1]): 0.7 nM and 1.6 nM
EC50 (nM) SNU-5 (Carboanhydrase IX [1]): 3 nM and 2.2 nM
MIAPaCa 2/CA9+ IC50 (Carboanhydrase IX [2]): 0.9 nM

B19: Example 290 (antibody, human IgG1, kappa, V domains shown)
VH: B4 VH
VL: B4 VL
modifications: linker-toxophore on lysine NH
EC50 (nM) HT29 (Carboanhydrase IX [1]): 115 nM
EC50 (nM) SNU-5 (Carboanhydrase IX [1]): 84 nM
MIAPaCa 2/CA9+ IC50 (Carboanhydrase IX [2]): 1.9 nM

B22: Example 293 (antibody, human IgG1, kappa, V domains shown)
VH: B4 VH
VL: B4 VL
modifications: linker-toxophore on cysteine S
EC50 (nM) HT29 (Carboanhydrase IX [1]): 0.1 nM
MIAPaCa 2/CA9+ IC50 (Carboanhydrase IX [2]): < 0.1 nM

B23: Example 292 (antibody, human IgG1, kappa, V domains shown)
VH: B4 VH
VL: B4 VL
modifications: linker-toxophore on cysteine S
EC50 (nM) HT29 (Carboanhydrase IX [1]): 223 nM
MIAPaCa 2/CA9+ IC50 (Carboanhydrase IX [2]): 35 nM

B25: Example 291 (antibody, human IgG1, kappa, V domains shown)
VH: B4 VH
VL: B4 VL
modifications: linker-toxophore on cysteine S
EC50 (nM) HT29 (Carboanhydrase IX [1]): 27 nM
MIAPaCa 2/CA9+ IC50 (Carboanhydrase IX [2]): 22 nM

B31: Example 285 (antibody, human IgG1, kappa, V domains shown)
VH: B4 VH
VL: B4 VL
modifications: linker-toxophore on cysteine S
EC50 (nM) HT29 (Carboanhydrase IX [1]): 0.5 nM
MIAPaCa 2/CA9+ IC50 (Carboanhydrase IX [2]): 0.6 nM

B34: Example 282 (antibody, human IgG1, kappa, V domains shown)
VH: B4 VH
VL: B4 VL
modifications: linker-toxophore on cysteine S
EC50 (nM) HT29 (Carboanhydrase IX [1]): < 0.01 nM
MIAPaCa 2/CA9+ IC50 (Carboanhydrase IX [2]): 0.05 nM

B37: Example 283 (antibody, human IgG1, kappa, V domains shown)
VH: B4 VH
VL: B4 VL
modifications: linker-toxophore on cysteine S
EC50 (nM) HT29 (Carboanhydrase IX [1]): 0.3 nM
MIAPaCa 2/CA9+ IC50 (Carboanhydrase IX [2]): 0.4 nM

The remaining lines, values ahead:

EC50 (nM) HT29 (Carboanhydrase IX [1]): 2.5 nM
EC50 (nM) SNU-5 (Carboanhydrase IX [1]): 7.8 nM
MIAPaCa 2/CA9+ IC50 (Carboanhydrase IX [2]): 1.1 nM
B5: Example 298 (antibody, human IgG1, kappa, V domains shown)
VH: B4 VH
VL: B4 VL
modifications: linker-toxophore on cysteine S

EC50 (nM) HT29 (Carboanhydrase IX [1]): > 100 nM
EC50 (nM) SNU-5 (Carboanhydrase IX [1]): 63 nM
MIAPaCa 2/CA9+ IC50 (Carboanhydrase IX [2]): 25 nM
B6: Example 295 (antibody, human IgG1, kappa, V domains shown)
VH: B4 VH
VL: B4 VL
modifications: linker-toxophore on cysteine S

MIAPaCa 2/CA9+ IC50 (Carboanhydrase IX [2]): 220 nM
B7: Example 321 (antibody, human IgG1, kappa, V domains shown)
VH: B4 VH
VL: B4 VL
modifications: linker-toxophore on cysteine S

MIAPaCa 2/CA9+ IC50 (Carboanhydrase IX [2]): 2 nM
B9: Example 326 (antibody, human IgG1, kappa, V domains shown)
VH: B4 VH
VL: B4 VL
modifications: linker-toxophore on lysine NH

MIAPaCa 2/CA9+ IC50 (Carboanhydrase IX [2]): 238 nM
B10: Example 323 (antibody, human IgG1, kappa, V domains shown)
VH: B4 VH
VL: B4 VL
modifications: linker-toxophore on lysine NH

EC50 (nM) HT29 (Carboanhydrase IX [1]): 2.2 nM
EC50 (nM) SNU-5 (Carboanhydrase IX [1]): 3.3 nM
MIAPaCa 2/CA9+ IC50 (Carboanhydrase IX [2]): 0.009 nM
B12: Example 303 (antibody, human IgG1, kappa, V domains shown)
VH: B4 VH
VL: B4 VL
modifications: linker-toxophore on lysine NH

EC50 (nM) HT29 (Carboanhydrase IX [1]): 5 nM
MIAPaCa 2/CA9+ IC50 (Carboanhydrase IX [2]): 0.3 nM
B13: Example 300 (antibody, human IgG1, kappa, V domains shown)
VH: B4 VH
VL: B4 VL
modifications: linker-toxophore on cysteine S

EC50 (nM) HT29 (Carboanhydrase IX [1]): 13.6 nM
EC50 (nM) SNU-5 (Carboanhydrase IX [1]): 21.4 nM
MIAPaCa 2/CA9+ IC50 (Carboanhydrase IX [2]): 1 nM
B18: Example 294 (antibody, human IgG1, kappa, V domains shown)
VH: B4 VH
VL: B4 VL
modifications: linker-toxophore on cysteine S

EC50 (nM) HT29 (Carboanhydrase IX [1]): 0.9 nM
EC50 (nM) SNU-5 (Carboanhydrase IX [1]): 2.2 nM
MIAPaCa 2/CA9+ IC50 (Carboanhydrase IX [2]): 2.6 nM
B20: Example 305 (antibody, human IgG1, kappa, V domains shown)
VH: B4 VH
VL: B4 VL
modifications: linker-toxophore on cysteine S

EC50 (nM) HT29 (Carboanhydrase IX [1]): < 0.01 nM
MIAPaCa 2/CA9+ IC50 (Carboanhydrase IX [2]): 0.02 nM
B21: Example 297 (antibody, human IgG1, kappa, V domains shown)
VH: B4 VH
VL: B4 VL
modifications: linker-toxophore on cysteine S

MIAPaCa 2/CA9+ IC50 (Carboanhydrase IX [2]): 11 nM
B24: Example 324 (antibody, human IgG1, kappa, V domains shown)
VH: B4 VH
VL: B4 VL
modifications: linker-toxophore on cysteine S

MIAPaCa 2/CA9+ IC50 (Carboanhydrase IX [2]): 137 nM
B26: Example 325 (antibody, human IgG1, kappa, V domains shown)
VH: B4 VH
VL: B4 VL
modifications: linker-toxophore on cysteine S

MIAPaCa 2/CA9+ IC50 (Carboanhydrase IX [2]): 19 nM
B27: Example 320 (antibody, human IgG1, kappa, V domains shown)
VH: B4 VH
VL: B4 VL
modifications: linker-toxophore on cysteine S

MIAPaCa 2/CA9+ IC50 (Carboanhydrase IX [2]): 19 nM
B28: Example 327 (antibody, human IgG1, kappa, V domains shown)
VH: B4 VH
VL: B4 VL
modifications: linker-toxophore on cysteine S

EC50 (nM) HT29 (Carboanhydrase IX [1]): 4.1 nM
MIAPaCa 2/CA9+ IC50 (Carboanhydrase IX [2]): 0.8 nM
B29: Example 299 (antibody, human IgG1, kappa, V domains shown)
VH: B4 VH
VL: B4 VL
modifications: linker-toxophore on cysteine S

EC50 (nM) HT29 (Carboanhydrase IX [1]): 66 nM
EC50 (nM) SNU-5 (Carboanhydrase IX [1]): 33 nM
MIAPaCa 2/CA9+ IC50 (Carboanhydrase IX [2]): 21 nM
B30: Example 306 (antibody, human IgG1, kappa, V domains shown)
VH: B4 VH
VL: B4 VL
modifications: linker-toxophore on lysine NH

EC50 (nM) HT29 (Carboanhydrase IX [1]): > 30 nM
MIAPaCa 2/CA9+ IC50 (Carboanhydrase IX [2]): 22 nM
B32: Example 301 (antibody, human IgG1, kappa, V domains shown)
VH: B4 VH
VL: B4 VL
modifications: linker-toxophore on cysteine S

EC50 (nM) HT29 (Carboanhydrase IX [1]): > 30 nM
MIAPaCa 2/CA9+ IC50 (Carboanhydrase IX [2]): 3.9 nM
B33: Example 302 (antibody, human IgG1, kappa, V domains shown)
VH: B4 VH
VL: B4 VL
modifications: linker-toxophore on cysteine S

EC50 (nM) HT29 (Carboanhydrase IX [1]): 0.05 nM
EC50 (nM) SNU-5 (Carboanhydrase IX [1]): 0.6 nM
MIAPaCa 2/CA9+ IC50 (Carboanhydrase IX [2]): 0.019 nM
B35: Example 304 (antibody, human IgG1, kappa, V domains shown)
VH: B4 VH
VL: B4 VL
modifications: linker-toxophore on cysteine S

EC50 (nM) HT29 (Carboanhydrase IX [1]): 0.4 nM
MIAPaCa 2/CA9+ IC50 (Carboanhydrase IX [2]): 0.6 nM
B36: Example 296 (antibody, human IgG1, kappa, V domains shown)
VH: B4 VH
VL: B4 VL
modifications: linker-toxophore on cysteine S

MIAPaCa 2/CA9+ IC50 (Carboanhydrase IX [2]): 172 nM
B38: Example 322 (antibody, human IgG1, kappa, V domains shown)
VH: B4 VH
VL: B4 VL
modifications: linker-toxophore on lysine NH
